In patent US20240158512A1 (TRUEBINDING, published 2024):

Legend:
Galectin-3 [1] = molecular target: T1, Galectin-3 (UniProt P17931 1-250, limits assumed); assay: BLI binding activity; DP stored at 25° C. for 3 months
T1 construct: also called Gal3; GAL3

Galectin-3 [2] = molecular target: T1, Galectin-3; assay: BLI binding activity; DP stored at 25° C. for 1 month
Galectin-3 [3] = molecular target: T1, Galectin-3; assay: BLI binding activity; DP stored at 5° C. for 9 months
Galectin-3 [4] = molecular target: T1, Galectin-3; assay: ELISA biological activity (blocking ELISA, blocked partner not named); DP stored at 25° C. for 3 months
Galectin-3 [5] = molecular target: T1, Galectin-3; assay: BLI binding activity; DP stored at 5° C. for 1 month
Galectin-3 [6] = molecular target: T1, Galectin-3; assay: ELISA biological activity (blocking ELISA, blocked partner not named); DP stored at 5° C. for 12 months
Galectin-3 [7] = molecular target: T1, Galectin-3; assay: ELISA biological activity (blocking ELISA, blocked partner not named); 20 mg/mL DP, time 0; Time 0 (control), 20 mg/mL DP
Galectin-3 [8] = molecular target: T1, Galectin-3; assay: BLI binding activity; DP stored at 5° C. for 18 months
Galectin-3 [9] = molecular target: T1, Galectin-3; assay: BLI binding activity; DP stored at 5° C. for 3 months
Galectin-3 [10] = molecular target: T1, Galectin-3; assay: ELISA biological activity (blocking ELISA, blocked partner not named); DP stored at 5° C. for 1 month
Galectin-3 [11] = molecular target: T1, Galectin-3; assay: ELISA biological activity (blocking ELISA, blocked partner not named); DP stored at 5° C. for 6 months
Galectin-3 [12] = molecular target: T1, Galectin-3; assay: ELISA biological activity (blocking ELISA, blocked partner not named); DP stored at 25° C. for 1 month
Galectin-3 [13] = molecular target: T1, Galectin-3; assay: ELISA biological activity (blocking ELISA, blocked partner not named); DP stored at 25° C. for 6 months
Galectin-3 [14] = molecular target: T1, Galectin-3; assay: ELISA biological activity (blocking ELISA, blocked partner not named); DP stored at 5° C. for 3 months
Galectin-3 [15] = molecular target: T1, Galectin-3; assay: ELISA biological activity (blocking ELISA, blocked partner not named); DP stored at 5° C. for 18 months
Galectin-3 [16] = molecular target: T1, Galectin-3; assay: BLI binding activity; DP stored at 5° C. for 6 months
Galectin-3 [17] = molecular target: T1, Galectin-3; assay: BLI binding activity; DP stored at 25° C. for 6 months
Galectin-3 [18] = molecular target: T1, Galectin-3; assay: BLI binding activity; DP stored at 5° C. for 12 months
Galectin-3 [19] = molecular target: T1, Galectin-3; assay: ELISA biological activity (blocking ELISA, blocked partner not named); DP stored at 5° C. for 9 months

T1 sequence (P17931 whole entry): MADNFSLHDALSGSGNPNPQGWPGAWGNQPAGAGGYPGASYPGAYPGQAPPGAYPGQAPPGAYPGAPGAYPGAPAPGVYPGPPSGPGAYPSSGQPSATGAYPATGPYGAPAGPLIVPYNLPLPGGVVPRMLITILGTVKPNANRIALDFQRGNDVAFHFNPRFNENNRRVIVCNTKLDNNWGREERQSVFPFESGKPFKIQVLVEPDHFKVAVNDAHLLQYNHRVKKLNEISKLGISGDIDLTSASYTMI

Kd (Galectin-3 [1]): 3.1 nM
Kd (Galectin-3 [2]): 2.5 nM
Kd (Galectin-3 [3]): 2.5 nM
IC50 (Galectin-3 [4]): 1.5 µg/mL
Kd (Galectin-3 [5]): 2.5 nM
IC50 (Galectin-3 [6]): 1.5 µg/mL
IC50 (Galectin-3 [7]): 2.5 µg/mL
Kd (Galectin-3 [8]): 2 nM
Kd (Galectin-3 [9]): 3 nM
IC50 (Galectin-3 [10]): 1.8 µg/mL
IC50 (Galectin-3 [11]): 1.5 µg/mL
IC50 (Galectin-3 [12]): 1.8 µg/mL
IC50 (Galectin-3 [13]): 1.5 µg/mL
IC50 (Galectin-3 [14]): 1.5 µg/mL
IC50 (Galectin-3 [15]): 1.8 µg/mL
Kd (Galectin-3 [16]): 3.5 nM
Kd (Galectin-3 [17]): 3.7 nM
Kd (Galectin-3 [18]): 3.1 nM
IC50 (Galectin-3 [19]): 1.2 µg/mL
B1: TB006 (antibody, human IgG4 S228P, kappa, V domains shown)
VH: QVQLVQSGAEVKKPGASVKVSCKASGYSFTNYYMHWVRQAPGQRLEWMGWIYPGSGNTNYNEKFQGRVTITADTSASTAYMELSSLRSEDTAVYYCSTAPGGFDVWGQGTTVTVSS
VL: DIVMTQTPLSLSVTPGQPASISCKSSKSLLHSDGITYLYWYLQKPGQSPQLLIYRMSNLASGVPDRFSGSGSGTDFTLKISRVEAEDVGVYYCAQMLEFPLTFGQGTKLEIKR
notes: Tested as drug product at 20 mg/mL in 20 mM L-histidine, 5 mM methionine, 100 mM NaCl, 0.02% polysorbate-80, pH 5.8; also called 4A11.H3L1; IMT006a
